The results in this text go back to patent US20080026982A1.

Assay in all cases: cell-based or functional assay
Experiment [1] concerns the target APOBEC3G mutant P129F, C-terminal myc-tagged (human) (UniProt Q9HC16).
Experiment [2] concerns the target APOBEC3G mutant P129A, C-terminal myc-tagged (human) (UniProt Q9HC16).
In experiment [3] the target is APOBEC3G mutant P129D, C-terminal myc-tagged, expressed from pAPO3G-P129D (human) (UniProt Q9HC16).
Experiment [4] deals with APOBEC3G mutant D128K, C-terminal myc-tagged (human).

Bounds are passed on as bounds.

“HIV-1 Vif (virion infectivity factor), expressed from pC-Help”: the Inhibition HIV-1 (%) (viral inhibition, HDV-EGFP single-cycle infectivity in the presence of Vif) in experiment [1] amounted to 79%; in experiment [2] it was 68%; in experiment [3], 94%; in experiment [4], 83%. Besides, the GFP-positive cells (relative to wild type APOBEC3G with pcHelp set to 100%) in experiment [3] was < 10%.

HIV-2 Vif (HIV-2Rod): the Inhibition HIV-2 (%) (viral inhibition, HDV-EGFP single-cycle infectivity in the presence of Vif) amounted to 81% in experiment [1], 77% in experiment [2], 95% in experiment [3] and 42% in experiment [4]. The GFP-positive cells (relative to wild type APOBEC3G with pcHelp set to 100%) in experiment [3] was < 10%.
